Assay results taken from patent US20140087995A1 (published 2014).
One block for each binder: values may come before it. Numbered stars: 1 amine (or outer) side, 2 acyl side, 3 side chain; on linkers, the order of the positions; unused ones are H or OH. Bridge positions count the residues as written; N and C are the ends. Side chains are listed from the residue outwards. Ends that are not written are not given here. * marks the point of attachment. C20 diacid = O=C(O)CCCCCCCCCCCCCCCCCCC(=O)*; γGlu = O=C(O)[C@H](CCC(=O)[*:2])N[*:1]; AEEA = NCCOCCOCC(=O)O

Key:
rat calcitonin receptor [1] = molecular target: T1, rat calcitonin receptor (rat, UniProt P32214 25-516); test: ratio of binding IC50s: rat calcitonin receptor over rat amylin receptor (reference)
T1 construct: whole, on cells; also called rCTR; rat calcitonin (a) receptor
T1 sequence (looked up): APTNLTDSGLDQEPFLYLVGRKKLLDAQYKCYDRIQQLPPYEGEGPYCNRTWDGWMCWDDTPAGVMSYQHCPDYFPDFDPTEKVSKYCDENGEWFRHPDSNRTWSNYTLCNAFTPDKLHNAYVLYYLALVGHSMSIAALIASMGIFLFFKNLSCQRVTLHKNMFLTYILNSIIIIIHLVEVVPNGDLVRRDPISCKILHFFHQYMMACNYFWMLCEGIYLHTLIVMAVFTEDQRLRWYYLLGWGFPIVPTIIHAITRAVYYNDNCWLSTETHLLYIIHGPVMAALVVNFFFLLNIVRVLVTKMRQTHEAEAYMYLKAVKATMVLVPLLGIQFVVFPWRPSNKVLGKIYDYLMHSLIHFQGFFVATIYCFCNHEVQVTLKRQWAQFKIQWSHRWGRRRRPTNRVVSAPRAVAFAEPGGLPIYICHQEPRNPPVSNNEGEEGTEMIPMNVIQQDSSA

[2] = molecular target: T2, human calcitonin receptor (human, UniProt P30988 25-474); test: ratio of binding IC50s: human calcitonin receptor over human amylin receptor (reference)
T2 construct: whole, on cells; also called hCTR; hCT
T2 sequence (looked up): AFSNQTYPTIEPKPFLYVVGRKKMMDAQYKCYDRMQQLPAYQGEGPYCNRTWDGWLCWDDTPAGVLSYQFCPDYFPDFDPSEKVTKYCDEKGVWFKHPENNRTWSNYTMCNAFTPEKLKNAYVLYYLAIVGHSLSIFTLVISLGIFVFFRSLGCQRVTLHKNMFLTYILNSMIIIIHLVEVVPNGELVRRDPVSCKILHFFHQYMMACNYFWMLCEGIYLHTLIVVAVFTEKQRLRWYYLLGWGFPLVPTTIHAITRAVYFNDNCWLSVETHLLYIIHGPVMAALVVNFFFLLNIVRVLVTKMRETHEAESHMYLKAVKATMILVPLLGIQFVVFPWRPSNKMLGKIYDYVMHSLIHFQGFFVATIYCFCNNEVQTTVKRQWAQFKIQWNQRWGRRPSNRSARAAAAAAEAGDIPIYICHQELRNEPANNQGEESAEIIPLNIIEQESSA
Procedure, shortened: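 Scintillation proximity competition binding on cell membranes at 35 ng/μL with SPA beads, in 50 mM Hepes pH 7.4, 1 mM CaCl2, 5 mM MgCl₂, 0.1% OA, 0.02% Tween20. Incubated 120 min at 25° C with shaking. IC₅₀ from one-site competition fit.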

rat calcitonin receptor [3] = molecular target: T1, rat calcitonin receptor; test: SPA competition with 125I-calcitonin, membranes of BHK cells with rat calcitonin receptor (Assay VIII)
[4] = molecular target: T3, rat amylin receptor (rat calcitonin receptor + rat RAMP 3) (rat, UniProt P32214 25-516; Q9JJ73 23-147); test: SPA competition with 125I-rat amylin, membranes of BHK cells with rat calcitonin receptor + rat RAMP3 (Assay VI)
T3 construct: whole, on cells; also called rAmylin-R; rat amylin 3(a) receptor
T3 sequence (looked up) 1: T1 sequence (looked up)
T3 sequence (looked up) 2: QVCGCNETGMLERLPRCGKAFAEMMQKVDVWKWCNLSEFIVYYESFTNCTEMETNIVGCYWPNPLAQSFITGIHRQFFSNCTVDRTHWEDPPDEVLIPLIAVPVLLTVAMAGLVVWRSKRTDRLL

Ratio rCT/rAmylin binding (rat calcitonin receptor [1]): 76.6
Ratio hCT/hAmylin binding [2]: 109
IC50 (rat calcitonin receptor [3]): 10.3 nM
IC50 [4]: 0.135 nM
B1: N^ε1-[2-[2-[2-[[(4S)-4-carboxy-4-(19-carboxynonadecanoylamino)butanoyl]amino]ethoxy]ethoxy]acetyl]-[Arg17,Pro21,Pro27,Pro34,His35]-h-amylin (peptide)
peptide: K([AEEA-γGlu-C20 diacid])CNTATCATQRLANFLRHSSPNFGAIPSSTNVGPHTY-NH2
modifications: disulfide 2-7; N-terminus assumed
SMILES: CC[C@H](C)[C@H](NC(=O)[C@H](C)NC(=O)CNC(=O)[C@H](Cc1ccccc1)NC(=O)[C@H](CC(N)=O)NC(=O)[C@@H]1CCCN1C(=O)[C@H](CO)NC(=O)[C@H](CO)NC(=O)[C@H](Cc1c[nH]cn1)NC(=O)[C@H](CCCNC(=N)N)NC(=O)[C@H](CC(C)C)NC(=O)[C@H](Cc1ccccc1)NC(=O)[C@H](CC(N)=O)NC(=O)[C@H](C)NC(=O)[C@H](CC(C)C)NC(=O)[C@H](CCCNC(=N)N)NC(=O)[C@H](CCC(N)=O)NC(=O)[C@@H](NC(=O)[C@H](C)NC(=O)[C@@H]1CSSC[C@H](NC(=O)[C@@H](N)CCCCNC(=O)COCCOCCNC(=O)CC[C@H](NC(=O)CCCCCCCCCCCCCCCCCCC(=O)O)C(=O)O)C(=O)N[C@@H](CC(N)=O)C(=O)N[C@@H]([C@@H](C)O)C(=O)N[C@@H](C)C(=O)N[C@@H]([C@@H](C)O)C(=O)N1)[C@@H](C)O)C(=O)N1CCC[C@H]1C(=O)N[C@@H](CO)C(=O)N[C@@H](CO)C(=O)N[C@H](C(=O)N[C@@H](CC(N)=O)C(=O)N[C@H](C(=O)NCC(=O)N1CCC[C@H]1C(=O)N[C@@H](Cc1c[nH]cn1)C(=O)N[C@H](C(=O)N[C@@H](Cc1ccc(O)cc1)C(N)=O)[C@@H](C)O)C(C)C)[C@@H](C)O
notes: synthetic analogue of human amylin; also called compound 58

Ratio rCT/rAmylin binding (rat calcitonin receptor [1]): 81.7
Ratio hCT/hAmylin binding [2]: 36
IC50 (rat calcitonin receptor [3]): 5.63 nM
IC50 [4]: 0.069 nM
B2: N^ε1-[2-[2-[2-[[(4S)-4-carboxy-4-(19-carboxynonadecanoylamino)butanoyl]amino]ethoxy]ethoxy]acetyl]-[Arg17,Pro21,Pro27,Pro34]-h-amylin (peptide)
peptide: K([AEEA-γGlu-C20 diacid])CNTATCATQRLANFLRHSSPNFGAIPSSTNVGPNTY-NH2
modifications: disulfide 2-7; N-terminus assumed
SMILES: CC[C@H](C)[C@H](NC(=O)[C@H](C)NC(=O)CNC(=O)[C@H](Cc1ccccc1)NC(=O)[C@H](CC(N)=O)NC(=O)[C@@H]1CCCN1C(=O)[C@H](CO)NC(=O)[C@H](CO)NC(=O)[C@H](Cc1c[nH]cn1)NC(=O)[C@H](CCCNC(=N)N)NC(=O)[C@H](CC(C)C)NC(=O)[C@H](Cc1ccccc1)NC(=O)[C@H](CC(N)=O)NC(=O)[C@H](C)NC(=O)[C@H](CC(C)C)NC(=O)[C@H](CCCNC(=N)N)NC(=O)[C@H](CCC(N)=O)NC(=O)[C@@H](NC(=O)[C@H](C)NC(=O)[C@@H]1CSSC[C@H](NC(=O)[C@@H](N)CCCCNC(=O)COCCOCCNC(=O)CC[C@H](NC(=O)CCCCCCCCCCCCCCCCCCC(=O)O)C(=O)O)C(=O)N[C@@H](CC(N)=O)C(=O)N[C@@H]([C@@H](C)O)C(=O)N[C@@H](C)C(=O)N[C@@H]([C@@H](C)O)C(=O)N1)[C@@H](C)O)C(=O)N1CCC[C@H]1C(=O)N[C@@H](CO)C(=O)N[C@@H](CO)C(=O)N[C@H](C(=O)N[C@@H](CC(N)=O)C(=O)N[C@H](C(=O)NCC(=O)N1CCC[C@H]1C(=O)N[C@@H](CC(N)=O)C(=O)N[C@H](C(=O)N[C@@H](Cc1ccc(O)cc1)C(N)=O)[C@@H](C)O)C(C)C)[C@@H](C)O
notes: synthetic analogue of human amylin; also called compound 50
